# Assay results published in patent US20170051285A1, “COMPOSITIONS AND METHODS OF USING SAME FOR REDUCING RESISTANCE TO MOSQUITO LARVICIDES” (priority 2014, published 2017).
# Tested on: Ae. aegypti adult females, RJ strain
# Experiment: dsRNA treatment of larvae followed by pyrethroid (deltamethrin) adulticide bottle bioassay
# Format: in vivo, Aedes aegypti
# Details: soaking 0.1 μg/μL 24 hours plus 4 feedings with food-containing dsRNA, deltamethrin 0.5 μg/bottle
# Description: Third instar larvae were treated (in groups of 100 larvae) in a final volume of 3 mL of dsRNA solution in autoclaved water (0.5 μg/μL for sodium channel (AAEL008297), PgP (AAEL010379) and Ago3 (AAEL007823) dsRNA, or 0.1 μg/μL for CYP9J26 (JF924909.1). The control group was kept in 3 ml sterile water only. Larvae were soaked in the dsRNA solutions for 24 hr at 27° C., and then transferred into new containers (300 larvae/1500 mL of chlorine-free tap water), which were also maintained at 27° C., and were provided 6 mg/100 mL lab dog/cat diet (Purina Mills) suspended in water as a source of food on a daily basis. As pupae developed, they were transferred to individual vials to await eclosion and sex sorting. For bioassays purpose only females up to five days old were used. See FIG. 11 for detailed explanation of this experiment.
# After soaking in the dsRNA solutions for 24 hr at 27° C., the larvae were transferred into new containers (300 larvae/1500 mL of chlorine-free tap water), and were provided agarose cubes containing 300 μg of dsRNA once a day for a total of four days. The larvae were reared until adult stage. […]
# Bottles were prepared following the Brogdon and McAllister (1998) protocol [Brogdon and McAllister (1998) Emerg Infect Dis 4:605-613]. […] At 15, 30 and 45 min intervals, the number of live and dead mosquitoes in each bottle was recorded. […]
molecule,measurement,setting,value
"CYP9J26 dsRNA: dsRNA targeting Cytochrome p450 (CYP9J26) JF924909.1, SEQ ID NO: 203 (nucleic acid, double stranded RNA) CTTCAACGACTTCGTCCGATCAATTTACAACAAATATCCTGGAGTGAAGGTTTTCGGAATGTTCGAGACGATCACGCCGTTCTTCGTGATTCGCGATCCGGAGTTGATCAAGCAGATCGGCATCAAGGATTTCGATCACTTCGTTGACCACCGTCCGACGTTCGGACTGGACGATGAAACGGCGGAGCATCCGAAGGCGCTGTTCCGCAAGACGCTGTTCTCGATGACCGGTCAACGGTGGAAGGAGATGCGCGCTACGCTGAGTCCGGCTTTTACCGGCAGTAAGATGCGACAGATGTTCTCGCTGATGAGCGAATGCTGCGACGAAATGATGAAGCACTACCTGGACAAGGCGAAGGGCACGGGAAGGGTGGAAGTCGAAATGAAGGACTTGCTGAGTCGAATCACTATCAATGTGATTGCGTCGTGTGCTTTTGGAATCAAGGTGGAC",susceptibility of adult mosquitoes to deltamethrin (FIG. 18),,more sensitive to deltamethrin during the first 15 minutes
same,susceptibility of adult mosquitoes to deltamethrin (FIG. 18),listed as CYP9J29 dsRNA,affects the susceptibility
